The target of experiment [1] is CmCalS1 of figleaf gourd (Cucurbita ficifolia (figleaf gourd)).
For experiment [2], the target named is CmCalS1 of 'Dongyangshenli' (Cucurbita moschata ('Dongyangshenli')).

Take “CmNAC100L1 of figleaf gourd (natural protein)”: in experiment [1], the CmCalS1 enzyme activity in vitro with CmNAC100L1 added (CmNAC100L1 3.5 ng, CmCalS1 85 ng); 10.33 U L^-1 without CmNAC100L1 is 3.23 U L^-1.

“CmNAC100L1 of 'Dongyangshenli' (natural protein)” had a CmCalS1 enzyme activity in vitro with CmNAC100L1 added (CmNAC100L1 3.5 ng, CmCalS1 85 ng); 18.61 U L^-1 without CmNAC100L1 in experiment [2] of 47.8 U L^-1.

These data come from paper PMC10873582.
